Test results: patent US20090175789A1 (LFB BIOTECHNOLOGIES, published 2009)

Legend:
[1] = target: T1, mouse LDL receptor (C2C12 cells) (mouse, UniProt P35951 22-862); test: flow cytometry on C2C12 cells, antibody at 30 µg/mL
T1 construct: whole, on cells; also called murine LDL-R
Experimental: (§1) The cross-reactivity of the anti-LDL-R antibodies was tested in the mouse (C2C12 cells), in the rat (YB2/0 cells), and in the hamster (CHO-K1 cells). The anti-LDL-R 12G4 antibodies were incubated at a final concentration of 30 μg/mL for 3 hours at 4° C. on C2C12, CHO-K1, and YB2/0 cells that had been cultured beforehand under LPDS conditions for 24 hours. The commercial 1C6 (anti-SREBP2, IgG) and C7 (anti-LDL-R, IgG2b) antibodies were used as negative and positive control antibodies, respectively. The detection of the bond was performed using an anti-IgG-PE antibody. The results were expressed as the percentage of fluorescent cells (FIG. 6A) and as mean fluorescence (FIG. 6B).

[2] = target: T2, rat LDL receptor (YB2/0 cells) (rat, UniProt P35952 22-879); test: flow cytometry on YB2/0 cells, antibody at 30 µg/mL
T2 construct: whole, on cells
T2 sequence (P35952 22-879): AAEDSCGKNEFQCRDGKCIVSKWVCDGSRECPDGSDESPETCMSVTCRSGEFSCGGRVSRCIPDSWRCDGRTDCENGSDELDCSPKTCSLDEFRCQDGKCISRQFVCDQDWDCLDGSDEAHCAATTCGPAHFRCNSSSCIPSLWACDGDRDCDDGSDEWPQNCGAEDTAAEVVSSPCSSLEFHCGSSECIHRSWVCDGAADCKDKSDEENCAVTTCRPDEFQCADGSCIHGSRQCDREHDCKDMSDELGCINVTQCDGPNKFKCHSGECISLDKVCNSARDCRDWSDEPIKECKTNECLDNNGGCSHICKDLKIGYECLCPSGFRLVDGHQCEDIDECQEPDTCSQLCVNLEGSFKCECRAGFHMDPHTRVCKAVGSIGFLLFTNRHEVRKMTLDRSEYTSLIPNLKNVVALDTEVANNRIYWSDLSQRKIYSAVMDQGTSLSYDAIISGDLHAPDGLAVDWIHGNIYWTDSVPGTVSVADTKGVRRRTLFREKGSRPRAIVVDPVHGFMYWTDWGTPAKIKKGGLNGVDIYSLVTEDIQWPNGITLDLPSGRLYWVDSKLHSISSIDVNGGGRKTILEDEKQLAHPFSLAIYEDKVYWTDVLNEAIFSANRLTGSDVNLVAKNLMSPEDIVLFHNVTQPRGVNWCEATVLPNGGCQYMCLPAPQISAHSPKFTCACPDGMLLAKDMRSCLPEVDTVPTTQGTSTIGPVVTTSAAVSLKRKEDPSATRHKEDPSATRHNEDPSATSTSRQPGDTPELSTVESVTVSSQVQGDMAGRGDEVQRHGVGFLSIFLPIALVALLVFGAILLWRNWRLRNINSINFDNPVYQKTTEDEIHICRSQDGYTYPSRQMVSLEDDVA
Experimental: as §1

[3] = target: T3, hamster LDL receptor (CHO-K1 cells) (hamster, UniProt P35950 22-862); test: flow cytometry on CHO-K1 cells, antibody at 30 µg/mL
T3 construct: whole, on cells
T3 sequence (P35950 22-862): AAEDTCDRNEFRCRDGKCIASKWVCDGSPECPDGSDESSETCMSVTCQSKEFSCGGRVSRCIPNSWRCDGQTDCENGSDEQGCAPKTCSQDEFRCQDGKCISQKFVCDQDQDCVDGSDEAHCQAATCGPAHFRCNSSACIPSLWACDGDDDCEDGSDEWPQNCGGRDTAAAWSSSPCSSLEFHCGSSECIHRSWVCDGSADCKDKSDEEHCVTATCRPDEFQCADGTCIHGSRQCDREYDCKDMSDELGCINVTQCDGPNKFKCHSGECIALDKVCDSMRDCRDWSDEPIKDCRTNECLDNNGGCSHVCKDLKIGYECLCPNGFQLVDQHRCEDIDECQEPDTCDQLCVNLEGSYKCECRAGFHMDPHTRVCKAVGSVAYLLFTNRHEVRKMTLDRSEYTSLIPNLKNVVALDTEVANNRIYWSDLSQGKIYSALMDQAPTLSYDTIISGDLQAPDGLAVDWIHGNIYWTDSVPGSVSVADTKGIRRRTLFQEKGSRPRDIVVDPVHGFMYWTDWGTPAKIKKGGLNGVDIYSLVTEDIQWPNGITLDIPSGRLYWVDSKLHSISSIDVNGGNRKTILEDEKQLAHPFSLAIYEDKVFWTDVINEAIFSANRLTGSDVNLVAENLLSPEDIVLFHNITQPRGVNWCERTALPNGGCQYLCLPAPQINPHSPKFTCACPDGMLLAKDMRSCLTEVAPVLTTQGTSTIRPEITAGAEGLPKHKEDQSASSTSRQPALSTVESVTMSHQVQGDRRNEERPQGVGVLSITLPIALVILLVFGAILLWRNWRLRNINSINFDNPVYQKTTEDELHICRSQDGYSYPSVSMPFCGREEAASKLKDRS
Experimental: as §1

Measured: binding result

T1 sequence (P35951 22-862): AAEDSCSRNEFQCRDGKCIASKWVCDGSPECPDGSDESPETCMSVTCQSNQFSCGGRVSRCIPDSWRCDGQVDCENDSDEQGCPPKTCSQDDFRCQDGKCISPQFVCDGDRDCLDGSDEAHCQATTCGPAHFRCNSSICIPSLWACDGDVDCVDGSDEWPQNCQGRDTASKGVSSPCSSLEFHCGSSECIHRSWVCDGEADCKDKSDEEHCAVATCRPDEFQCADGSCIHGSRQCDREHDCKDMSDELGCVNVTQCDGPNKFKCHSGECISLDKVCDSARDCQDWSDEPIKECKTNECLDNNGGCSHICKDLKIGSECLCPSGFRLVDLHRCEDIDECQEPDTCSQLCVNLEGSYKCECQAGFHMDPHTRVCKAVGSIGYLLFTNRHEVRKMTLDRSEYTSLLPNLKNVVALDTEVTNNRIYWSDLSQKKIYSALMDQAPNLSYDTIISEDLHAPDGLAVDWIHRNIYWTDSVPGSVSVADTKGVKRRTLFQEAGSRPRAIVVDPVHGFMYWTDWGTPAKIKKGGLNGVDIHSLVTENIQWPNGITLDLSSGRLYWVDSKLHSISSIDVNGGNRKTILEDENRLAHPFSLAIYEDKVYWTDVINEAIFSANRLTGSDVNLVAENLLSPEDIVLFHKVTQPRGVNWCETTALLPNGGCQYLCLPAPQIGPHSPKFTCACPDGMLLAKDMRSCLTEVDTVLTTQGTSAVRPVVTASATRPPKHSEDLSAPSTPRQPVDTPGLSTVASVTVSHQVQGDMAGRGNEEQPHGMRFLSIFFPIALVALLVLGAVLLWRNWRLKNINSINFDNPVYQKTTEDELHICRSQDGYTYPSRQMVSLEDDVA

B1: anti-LDL-R 12G4 antibody (antibody, mouse IgG1, V domains shown)
VH: QIQLVQSGPELKKPGETVKISCKASGYTFTKYGMNWVKQAPGKGLKWMGWINTNTGEPTYAEEFKGRFAFSLETSASTAFLQINNLKNEDTATYFCSRGGYYDSYWGQGTLVTVSA
VL: DIVMSQSPSSLAVSVGEKVTMSCKSSQSLLYSSSQKNYLAWYQQKPGQSPKVLIYWASTRESGVPDRFTGSGSGTDFTLTISSVKAEDLAVYYCQQYYTYRTFGGGTKLEIK
notes: Murine IgG1 kappa purified from ascites of hybridoma H12G4; also called anti-LDL-R 12G4 antibodies; monoclonal antibody produced by the H12G4 hybridoma (CNCM I-3487)
binds: [1] | [2] | [3]
